Experimental data from US20260274955A1 (JANUX THERAPEUTICS, published 2026).

What was measured:
[1] = biological target: Anti-CD28 Fab (SEQ ID NOs: 202, 203); experiment: phage binding ELISA on captured Fab;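 note: clonal phage supernatants added briefly to wells pre-incubated with CD28 antigen or with blocking buffer only, then washed, bound phage read by ELISA using HRP-coupled anti-M13 antibody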
Method: (§1) Clonal phage were harvested as crude supernatants and screened via standard ELISAs. […] Prior to the addition of clonal phage, wells were incubated with blocking buffer and CD28 antigen or blocking buffer alone. Without washing or aspirating, clonal phage supernatants were then added to the wells and incubated for a short time. Wells were then washed followed by detection of bound phage using a horse radish conjugated anti-M13 antibody.

[2] = biological target: Anti-CD28 Fab (SEQ ID NOs: 202, 203); experiment: phage binding ELISA on captured Fab, competitor CD28 antigen;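 note: clonal phage supernatant binding in wells preincubated with CD28 antigen in blocking buffer, detected by HRP-conjugated anti-M13 antibody ELISA, compared with blocking buffer alone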
Method: as §1

Sequence of Anti-CD28 Fab (SEQ ID NOs: 202, 203) (VH, as listed by the source, chain 1 of 2): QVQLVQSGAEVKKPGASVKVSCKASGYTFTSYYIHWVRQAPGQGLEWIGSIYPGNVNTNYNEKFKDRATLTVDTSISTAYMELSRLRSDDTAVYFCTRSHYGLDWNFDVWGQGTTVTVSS
Sequence of Anti-CD28 Fab (SEQ ID NOs: 202, 203) (VL, as listed by the source, chain 2 of 2): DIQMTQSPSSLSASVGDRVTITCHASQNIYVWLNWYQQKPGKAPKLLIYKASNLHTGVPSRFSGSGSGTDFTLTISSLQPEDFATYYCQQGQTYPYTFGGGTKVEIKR

| Binder | Anti-CD28 Fab (SEQ ID NOs: 202, 203) signal [1] | Anti-CD28 Fab signal in the presence of CD28 [2] |
| --- | --- | --- |
| YCDGHLPEYMLKCL [Phage-780] | 0.96 | 0.09 |
| YCDGHLPEYMEKCL [Phage-880] | 0.43 | 0.07 |
| YCEGHDIRYMMKCL [Phage-785] | 0.95 | 0.08 |
| YCDGHTGMYISKCL [Phage-774] | 0.98 | 0.06 |
| YCEGHVPEYLVKCL [Phage-778] | 0.96 | 0.06 |
| YCAGHLDVYMSKCL [Phage-781] | 0.96 | 0.09 |
| YCAGHTPEYLDKCL [Phage-784] | 0.95 | 0.06 |
| YCDGHSKEYMSKCL [Phage-779] | 0.96 | 0.07 |
| YCDGHIKEYMSKCL [Phage-799] | 0.91 | 0.08 |
| YCDGHSGEYMSKCL [Phage-819] | 0.82 | 0.06 |
| YCDGHEERYMAKCL [Phage-786] | 0.94 | 0.06 |
| YCEGHSAIYIAKCM [Phage-772] | 0.98 | 0.11 |
| YCSGHVPEYMEKCL [Phage-787] | 0.94 | 0.06 |
| YCSGHSWAYIGKCL [Phage-775] | 0.98 | 0.07 |
| YCDGHIPQYVEKCL [Phage-788] | 0.94 | 0.08 |
| YCAGHAEIYMQKCL [Phage-789] | 0.93 | 0.05 |
| YCFGHFPEYMAKCL [Phage-773] | 0.98 | 0.07 |
| YCDGHHAEYMWKCL [Phage-791] | 0.93 | 0.06 |
| YCAGHAAEYMWKCL [Phage-776] | 0.97 | 0.06 |
| YCEGHAHEYMEKCV [Phage-790] | 0.93 | 0.07 |
| YCQGHFPQYMAKCL [Phage-777] | 0.97 | 0.07 |
